Patent US20220177594A1 (ZOETIS SERVICES, published 2022)
Read-outs that look alike come from different tables or passages of the source.

T1: canine OSMR on canine cells (canine, UniProt A0A8I3MI11 28-967)
T1 sequence: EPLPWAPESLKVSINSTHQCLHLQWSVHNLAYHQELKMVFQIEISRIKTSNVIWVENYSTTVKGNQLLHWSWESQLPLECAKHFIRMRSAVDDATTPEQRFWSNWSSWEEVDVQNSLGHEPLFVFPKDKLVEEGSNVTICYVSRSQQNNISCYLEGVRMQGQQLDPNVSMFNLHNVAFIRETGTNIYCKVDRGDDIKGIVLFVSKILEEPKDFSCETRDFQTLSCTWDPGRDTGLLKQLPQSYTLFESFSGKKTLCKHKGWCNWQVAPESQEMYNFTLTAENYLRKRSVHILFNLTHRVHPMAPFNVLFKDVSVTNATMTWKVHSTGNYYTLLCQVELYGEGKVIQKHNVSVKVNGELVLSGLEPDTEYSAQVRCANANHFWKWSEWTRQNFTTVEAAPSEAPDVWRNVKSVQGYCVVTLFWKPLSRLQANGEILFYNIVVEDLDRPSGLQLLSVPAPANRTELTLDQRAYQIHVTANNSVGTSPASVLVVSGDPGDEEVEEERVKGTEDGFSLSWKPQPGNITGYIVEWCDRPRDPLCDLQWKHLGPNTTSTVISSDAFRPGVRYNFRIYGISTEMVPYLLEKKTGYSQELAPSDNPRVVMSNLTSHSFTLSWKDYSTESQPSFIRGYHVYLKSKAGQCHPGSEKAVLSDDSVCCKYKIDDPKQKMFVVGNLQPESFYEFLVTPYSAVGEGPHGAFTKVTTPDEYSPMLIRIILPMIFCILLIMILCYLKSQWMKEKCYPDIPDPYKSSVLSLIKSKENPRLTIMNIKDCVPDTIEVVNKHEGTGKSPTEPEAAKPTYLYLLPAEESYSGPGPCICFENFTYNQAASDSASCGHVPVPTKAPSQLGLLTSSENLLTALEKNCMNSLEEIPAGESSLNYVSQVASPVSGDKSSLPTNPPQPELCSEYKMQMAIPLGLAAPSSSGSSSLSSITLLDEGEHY

T2: Human_OSMR (human, UniProt Q99650 28-739)
T2 construct: Bought protein; also called hOSMR
T2 sequence: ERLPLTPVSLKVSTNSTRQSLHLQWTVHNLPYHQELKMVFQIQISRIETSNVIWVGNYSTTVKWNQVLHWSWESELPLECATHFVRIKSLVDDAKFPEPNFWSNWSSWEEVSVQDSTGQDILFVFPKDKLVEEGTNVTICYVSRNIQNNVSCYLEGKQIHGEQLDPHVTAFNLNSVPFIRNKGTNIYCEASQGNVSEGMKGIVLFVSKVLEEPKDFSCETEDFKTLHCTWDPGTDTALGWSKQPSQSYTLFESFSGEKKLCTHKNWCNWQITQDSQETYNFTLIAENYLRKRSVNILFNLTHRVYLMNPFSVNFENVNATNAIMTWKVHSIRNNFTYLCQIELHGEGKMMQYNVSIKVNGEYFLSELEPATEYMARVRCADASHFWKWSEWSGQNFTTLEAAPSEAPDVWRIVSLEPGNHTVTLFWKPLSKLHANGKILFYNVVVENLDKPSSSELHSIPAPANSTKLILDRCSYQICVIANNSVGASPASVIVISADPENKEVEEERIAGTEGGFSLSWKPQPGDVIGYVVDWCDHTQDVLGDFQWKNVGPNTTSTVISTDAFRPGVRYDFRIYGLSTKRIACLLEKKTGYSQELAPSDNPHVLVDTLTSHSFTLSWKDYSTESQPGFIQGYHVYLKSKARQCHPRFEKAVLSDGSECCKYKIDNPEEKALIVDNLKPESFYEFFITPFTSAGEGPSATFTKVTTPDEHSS

T3: feline OSMR on feline Fcwf-4 cells (feline, UniProt A0ABI8A843 28-960)
T3 sequence: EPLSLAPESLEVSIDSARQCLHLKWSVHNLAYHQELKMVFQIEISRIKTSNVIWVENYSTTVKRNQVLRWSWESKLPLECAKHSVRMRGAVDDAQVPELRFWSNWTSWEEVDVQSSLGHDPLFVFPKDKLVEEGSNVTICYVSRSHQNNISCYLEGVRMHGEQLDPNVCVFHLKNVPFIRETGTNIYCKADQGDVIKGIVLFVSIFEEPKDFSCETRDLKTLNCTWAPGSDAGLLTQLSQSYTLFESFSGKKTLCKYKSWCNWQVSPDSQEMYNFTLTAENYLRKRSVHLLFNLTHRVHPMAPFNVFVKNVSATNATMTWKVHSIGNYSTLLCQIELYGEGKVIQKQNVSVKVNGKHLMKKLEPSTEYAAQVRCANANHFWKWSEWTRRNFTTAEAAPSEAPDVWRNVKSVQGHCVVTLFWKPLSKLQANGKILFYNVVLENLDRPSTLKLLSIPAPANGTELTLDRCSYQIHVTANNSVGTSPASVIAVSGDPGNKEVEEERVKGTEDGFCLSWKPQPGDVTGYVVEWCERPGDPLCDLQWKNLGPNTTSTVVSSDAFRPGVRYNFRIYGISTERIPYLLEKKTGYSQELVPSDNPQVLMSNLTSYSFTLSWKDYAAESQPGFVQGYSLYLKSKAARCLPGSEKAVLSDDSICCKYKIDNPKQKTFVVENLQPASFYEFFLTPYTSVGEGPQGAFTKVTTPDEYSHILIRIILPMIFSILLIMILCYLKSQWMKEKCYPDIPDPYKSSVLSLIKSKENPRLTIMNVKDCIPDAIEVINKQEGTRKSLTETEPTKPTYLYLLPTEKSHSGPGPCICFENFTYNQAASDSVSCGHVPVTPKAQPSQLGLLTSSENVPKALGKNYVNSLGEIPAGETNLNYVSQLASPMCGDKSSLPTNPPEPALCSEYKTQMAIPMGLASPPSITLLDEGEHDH

B1: mouse: canine 09E09 chimera (antibody, V domains shown)
VH: DVKLVESGEGLVKPGGSLKLSCAASGFTFSSYAMSWVRQTPEKRLEWVAYISSGGDYIYYADTVKGRFTISRDNARNTLYLQMSSLKSEDTAMYYCTRDPITGTFAYWGQGTLVTVSA
VL: DLQMTQTTSSLSASLGDRVTISCRASQDINNYLNWYQQKPDGTVKLLIYYTSTLHSGVPSRFSGSGSGTDYSLTISNLEQEDIATYFCQQGNTLPWTFGGGTKLEIKR
notes: Mouse variable domains on canine IgG constant regions; also called 09E09 (Mouse:Canine); mouse:dog chimera 09E09
B2: mouse: canine 10F07 chimera (antibody, V domains shown)
VH: DVKLVESGEGLVKPGGSLKLSCAASGFTFSSYAMSWVRQTPEKRLEWVTYISSGGDYFYYADTVKGRFTISRDNARNTLYLQMSSLKSEDTAMYYCTRDPITGTFAYWGQGTLVTVSA
VL: DIQMTQTTSSLSASLGDRVTISCRASQDITNYLNWYQQKPDGTVKLLIYYTSTLHSGVPSRFSGSGSGTDFSLTISNLEQEDIATYFCQQGHMLPWTFGGGTKLEIKR
notes: Mouse variable domains on canine IgG constant regions; also called 10F07 (Mouse:Canine); mouse:dog chimera 10F07
B3: mouse: canine 02D09 chimera (antibody, V domains shown)
VH: EVQLVESGGGLVKPGGSLTLSCAASGFTFSDYGMHWLRQAPEKGLEWVAYISSGSRAVFFADTVKGRFTISRDNAKNTLFLQMTSLRSDDTAMYYCARDRYDGRGFAYWGQGTLVTVSA
VL: DIVLTQSPATLSVTPGDSVSLSCRASQSISNNLHWYQQTSHESPRLLITYASQSISGIPSRFSGSGSGTDFTLSINSVETEDFGMYFCQQSNSWPLTFGAGTKLELKR
notes: Mouse variable domains on canine IgG constant regions; also called 02D09 (Mouse:Canine); chimeric 02D09
B4: Canine_OSM (ligand)
chain: SCSDKYPELLGQLQKQADFMQHTNTLLDLYIRSQGLDKNGLKEHCRERPGAFPSKDALQRLSRRVFLRTLDTTLGQVLLRLAALEQDIPKAQDLEMLSGVKLNIRGFKNNIHCMAQLLPGSSETTEPTPTSPGASPSPTPTLDTFQRRLEGCRFLHGYHRFMRSVGQVFREWGKSLSRSRR
notes: also called cOSM
B5: mouse: canine 19F07 chimera (antibody, V domains shown)
VH: EVKLVESEGGLVQPGSSMKLSCTASGFTFSDYYMAWVRQVPEKGLEWVANINYDGSSTYYLDSLKSRFIISRDNAKNILYLQMSSLKSEDTATYYCARGLTWDFDVWGTGTTVTVSS
VL: DIVMTQSHKFMSPSVGDRVSITCKASQDVDTAVAWYQQKPGQSPKLLIYLASTRHTGVPDRFTGSGSGTDFTLTISNVQSEDLADYFCQQYSRFPLTFGAGTKLELKR
notes: Mouse variable domains on canine IgG constant regions; also called 19F07 (Mouse:Canine); mouse:dog chimera 19F07

How the values were obtained:
[1] = molecular target: T1, canine OSMR on canine cells; assay: cell-based or functional assay
[2] = molecular target: T1, canine OSMR on canine cells; assay: cell-based or functional assay; remark: listed apart in the source
[3] = molecular target: T2, Human_OSMR; assay: SPR Biacore, OSMR on chip
Method: (§1) The affinity with which candidate mAbs bind canine, feline, and human (SEQ ID NO: 122; Human_OSMR) (R&D Systems, Minneapolis, Minn.) OSMR was determined using surface plasmon resonance (SPR) on a Biacore system (Biacore Life Sciences (GE Healthcare), Uppsala, Sweden). To avoid affinity differences associated with differential surface preparation that can occur when immobilizing antibodies to surfaces; OSMR from each species was directly conjugated to individual surfaces. Immobilization was obtained by amine coupling 5 μg/mL OSMR using N-hydroxysuccinimide (NHS)/1-Ethyl-3-(3-dimethylaminopropyl) carbodiimide (EDC) chemistry. Chips were quenched with ethanolamine and the affinity with which all candidate mAbs bound to the immobilized OSMR was evaluated. All curves were fit to a 1:1 model. […] Results for affinity measurements are described herein.

[4] = molecular target: T4, ANTIBODY EXPRESSION CONTROL; assay: SPR Biacore, expression control
T4 construct: also called mouse anti-canine antibody (capture reagent of the expression control ELISA)
Summary of the method: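 Surface plasmon resonance with OSMR amine-coupled at 5 μg/mL via NHS/EDC, ethanolamine-quenched, and candidate mAbs flowed over as analyte. ka, kd and KD derived from 1:1 model fits.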

[5] = molecular target: T3, feline OSMR on feline Fcwf-4 cells; assay: cell-based or functional assay
[6] = molecular target: T3, feline OSMR on feline Fcwf-4 cells; assay: cell-based or functional assay; remark: listed apart in the source
[7] = molecular target: T2, Human_OSMR; assay: SPR Biacore
Method: as §1
Caninized (canine) and felinized (feline) anti-OSMR antibodies were cloned, expressed, and purified. The sequence of each speciated antibody in Table 6 is described in Example 8. Affinity of these speciated antibodies to canine and feline OSMR was measured using Biacore. Table 5 describes results of these Biacore experiments for speciated antibodies that expressed and bound canine and/or feline OSMR. As indicated in the table, this first round of speciation produced antibodies from the 19F07, 09E09, and 10F07 lineage that expressed and bound to their protein target. For comparison to the mouse and mouse:canine chimeras having the same CDRs as these speciated versions, see Tables 1 and 3 respectively. […] Detailed here are the binding kinetics for antibodies that exemplify this goal.

Binder	IC50, inhibition of canine IL-31 pSTAT3 signaling, canine DH82 cells [1] [µg/ml]	IC50, inhibition of canine IL-31 pSTAT3 signaling, canine DH82 cells [2] [µg/ml]	binding result [3]	Kd [4] [pM]	koff [4] [s⁻¹]	kon [4] [M⁻¹ s⁻¹]	IC50, inhibition of canine OSM pSTAT3 signaling, canine DH82 cells [1] [µg/ml]	IC50, inhibition of canine OSM pSTAT3 signaling, feline Fcwf-4 cells [5] [µg/ml]	IC50, inhibition of feline IL-31 pSTAT3 signaling, feline Fcwf-4 cells [5] [µg/ml]	IC50, inhibition of canine OSM pSTAT3 signaling, canine DH82 cells [2] [µg/ml]	IC50, inhibition of feline IL-31 pSTAT3 signaling, feline Fcwf-4 cells [6] [µg/ml]	Kd [7] [pM]	koff [7] [s⁻¹]	kon [7] [M⁻¹ s⁻¹]
B1	47.5	31.3	no binding	2.3	8.68e-07	374000								
B2	0.03	0.05	no binding	617	8.27e-05	134000	0.2	0.28	0.05	0.16	0.32			
B3	97.7	97.7	no binding	600	9.15e-05	153000								
B4												38100	0.0039	102000
B5		0.28	no binding	82	2.29e-05	281000				0.26				
